The text below walks through data of publication doi:10.1101/271593 (bioRxiv, 2018).

The data set “native MS” deals with the molecule itself. The data set can be described thus: native MS.
The data set “crystal structure” concerns the molecule itself. Kind of data set: crystal structure.

B1: HsMTHFR_(1-656) treated with calf intestine alkaline phosphatase (dephosphorylated) (enzyme)
chain: not shown
On to B1, for which, in “native MS”, the stoichiometry N (as a rule, a count of units in the complex or per binding partner) worked out at 2.

B2: HsMTHFR_(38-644) (domain or fragment)
chain: not shown
B2: the “stoichiometry N” value in the data set “crystal structure” came to 2.
